Results taken from patent publication US20180125995A1, “ANTI-STAPHYLOCOCCUS AUREUS ANTIBODY RIFAMYCIN CONJUGATES AND USES THEREOF” (priority 2014, published 2018).
Values after ≈ are worked out from the molar mass of the structure shown.

Tests used:
[1] = system: MRSA sequestered inside mouse peritoneal macrophages; assay: MIC determination for intracellular bacteria sequestered inside murine macrophages; assay type: cell-based, Staphylococcus aureus
Protocol: Intracellular MIC was determined on bacteria that were sequestered inside mouse peritoneal macrophages (see below for generation of murine peritoneal macrophages). Macrophages were plated in 24 well culture dishes at a density of 4×10^5 cells/mL and infected with MRSA at a ratio of 10-20 bacteria per macrophage. Macrophage cultures were maintained in growth media supplemented with 50 ug/mL of gentamycin (an antibiotic that is active only on extracellular bacteria) to inhibit the growth of extracellular bacteria and test antibiotics were added to the growth media 1 day after infection. The survival of intracellular bacteria was assessed 24 hours after addition of the antibiotics. Macrophages were lysed with Hanks Buffered Saline Solution supplemented with 0.1% Bovine Serum Albumin and 0.1% Triton-X, and serial dilutions of the lysate were made in Phosphate Buffered Saline solution containing 0.05% Tween-20. The number of surviving intracellular bacteria was determined by plating on Tryptic Soy Agar plates with 5% defibrinated sheep blood.
(§1) For extracellular bacteria, MRSA was cultured overnight in Tryptic Soy Broth, and the MIC was determined to be the minimum antibiotic dose that prevented growth. For intracellular bacteria, murine peritoneal macrophages were infected with MRSA and cultured in the presence of gentamycin to kill extracellular bacteria. Test antibiotics were added to the culture medium one day post infection, and the total number of surviving intracellular bacteria was determined 24 hours later. The expected serum concentrations for clinically relevant antibiotics was reported in Antimicrobial Agents, Andre Bryskier. ASM Press, Washington D.C. (2005).

[2] = system: MRSA (NRS384 strain of USA300); assay: MIC determination for extracellular bacteria in liquid culture; assay type: cell-based; conditions: Staphylococcus aureus, read-out: Extracellular MRSA MIC
Protocol: The MIC for extracellular bacteria was determined by preparing serial 2-fold dilutions of the antibiotic in Tryptic Soy Broth. Dilutions of the antibiotic were made in quadruplicate in 96 well culture dishes. MRSA (NRS384 strain of USA300) was taken from an exponentially growing culture and diluted to 1×10^4 CFU/mL. The bacteria was cultured in the presence of antibiotic for 18-24 hours with shaking at 37° C. and bacterial growth was determined by reading the Optical Density (OD) at […]. The MIC was determined to be the dose of antibiotic that inhibited bacterial growth by >90%.
as §1

S. aureus = assay: Mouse intravenous infection with free vs intracellular S. aureus, vancomycin therapy; assay type: in vivo, Staphylococcus aureus; conditions: mice, i.v. infection, vancomycin immediately after infection then once per day, 4 days post infection
Protocol: FIGS. 1A-1F: Intracellular stores of MRSA are protected from vancomycin in vivo and in vitro. […] Four cohorts of mice were infected by intravenous injection with roughly equivalent doses of viable free bacteria or intracellular bacteria and selected groups were treated with vancomycin immediately after infection and then once per day (see Example 2). FIG. 1B and FIG. 1C show bacterial loads in kidney and brain, respectively of infected mice 4 days post infection. The dashed line indicates the limit of detection for the assay. […] (ND=none detected). […] MRSA (free bacteria) was seeded in media, media+vancomycin, or media+vancomycin and plated on a monolayer of MG63 osteoblasts (FIG. 1E) or Human Brain Microvascular Endothelial Cells (HBMEC, FIG. 1F). Extracellular bacteria (free bacteria) grew well in media alone, but were killed by vancomycin. In wells containing a monolayer of mammalian cells (Intracellular+vanco) a fraction of the bacteria were protected from vancomycin during the first 8 hours after infection and were able to expand within the intracellular compartment over 24 hours. Error bars show standard deviation for triplicate wells.
These experiments compared the virulence of intracellular bacteria versus an equivalent dose of free-living planktonic bacteria, and determined whether the intracellular bacteria are able to establish infection in the presence of vancomycin in vivo. […]

MRSA = assay: In vitro survival of MRSA in presence of vancomycin (planktonic, on MG63 osteoblasts, inside peritoneal cells); assay type: cell-based, Staphylococcus aureus
Protocol: Further analyses in vitro addressed more quantitatively the extent to which intracellular survival facilitates antibiotic evasion. To this end, MG63 osteoblasts were infected with either planktonic MRSA or intracellular MRSA, in the presence of vancomycin.
Infection of osteoblasts or HBMEC. MG63 cell line was obtained from ATCC (CRL-1427) and maintained in RPMI 1640 tissue culture media supplemented with 10 mM Hepes and 10% Fetal Calf Serum (RPMI-10). HBMEC cells (Catalog #1000) and ECM media (catalog#1001) were obtained from SciencCell Research Labs (Carlsbad, Calif.). Cells were plated in 24 well tissue culture plates and cultured to obtain a confluent layer. On the day of the experiment, the cells were washed once in RPMI (without supplements). MRSA or infected peritoneal cells were diluted in complete RPMI-10 and vancomycin was added at 5 ug/mL immediately prior to infection. Peritoneal cells were added to the osteoblasts at 1×10^6 peritoneal cells/mL. A sample of the cells was lysed with 0.1% triton-x to determine the actual concentration of live intracellular bacteria at the time of infection. The actual titer for all infections was determined by plating serial dilutions of the bacteria on Tryptic Soy Agar with 5% defibrinated sheep blood.
MRSA (free bacteria) was seeded in media, media+vancomycin, or media+vancomycin and plated on a monolayer of MG63 osteoblasts (FIG. 1E) or Human Brain Microvascular Endothelial Cells (HBMEC, FIG. 1F). Plates were centrifuged to promote contact of the bacteria with the monolayer. At each time point, the culture supernatant was collected to recover extracellular bacteria or adherent cells were lysed to release intracellular bacteria.

15 S. aureus strains = assay: FACS analysis of rF1 binding to S. aureus strains; parameters: species or system Staphylococcus aureus; conditions: flow cytometry, all 15 strains tested
Protocol: (§2) Whole bacteria were harvested from TSA plates or TSB cultures and washed with HBSS without phenol red supplemented with 0.1% IgG free BSA (Sigma) and 10 mM Hepes, pH 7.4 (HB buffer) Bacteria (20×10^8 CFU/mL) were incubated with 300 μg/mL of rabbit IgG (Sigma) in HB buffer for 1 h at room temperature (RT) to block nonspecific IgG binding. Bacteria were stained with 2 μg/mL of primary antibodies, including rF1 or isotype control IgG1 mAb gD:5237 (Nakamura G R, et al. (1993) J Virol 67: 6179-6191), and next with fluorescent anti-human IgG secondary antibodies (Jackson Immunoresearch, West Grove, Pa.). The bacteria were washed and analyzed by FACSCalibur® (BD).

[3] = system: MRSA COL bacteria from heart vegetations; assay: FACS analysis of rF1 binding to bacteria from rabbit infective endocarditis heart vegetations; parameters: species or system Staphylococcus aureus; conditions: rabbit model of infectious endocarditis
Protocol: (§3) For antibody staining of bacteria from infected mouse tissues, 6-8 weeks old female C57Bl/6 mice (Charles River, Wilmington, Mass.) were injected intravenously with 10^8 CFU of logphase-grown USA300 in PBS. Mouse organs were harvested two days after infection. Rabbit infective endocarditis (IE) was established as described in Tattevin P, et al. (2010) Antimicrobial agents and chemotherapy 54: 610-613. Rabbits were injected intravenously with 5×10^7 CFU of stationary-phase grown MRSA strain COL, and heart vegetations were harvested eighteen hours later. Treatment with 30 mg/kg of vancomycin was given intravenously b.i.d. 18 h after infection with 7×10^7 CFU stationary-phase COL.
(§4) To lyse mouse or rabbit cells, tissues were homogenized in M tubes (Miltenyi, Auburn, Calif.) using a gentleMACS® cell dissociator (Miltenyi), followed by incubation for 10 min at RT in PBS containing 0.1% Triton-X100 (Thermo), 10 µg/mL of DNAseI (Roche) and Complete Mini protease inhibitor cocktail (Roche). The suspensions were passed through a 40 micron filter (BD) and bacteria were stained with mAbs as described above. […] During flow cytometry analysis, bacteria were gated for positive staining with mAb 702 from double fluorescence plots. […]

MRSA strain USA300 = assay: Flow cytometry binding of mAbs to USA300 bacteria; parameters: species or system Staphylococcus aureus; conditions: MFI
Protocol: (§5) (FIGS. 5A-C) Bacteria were preopsonized with huIgG1 mAbs rF1 (squares), 4675 anti-ClfA (triangles), or anti-herpes virus gD (circles). (FIG. 5A): Binding of mAbs to WT (USA300-Aspa) bacteria was assessed by flow cytometry, and expressed as mean fluorescent intensity (MFI). (FIG. 5B): CFSE-labeled, preopsonized WT (USA300-Aspa) bacteria were incubated with human PMN. Bacterial uptake was expressed as % of CFSE-positive PMN, after gating for CD11b-positive cells by flow cytometry. (FIG. 5C): Preopsonized WT (USA300-Aspa) bacteria were incubated with PMN to assess bacterial killing. Numbers of viable CFU per mL are representative of at least three experiments.
as §2

[4] = system: S. saprophyticus, S. lugdunensis, S. simulans, S. carnosus, Streptococcus pyogenes, Bacillus subtilis, Enterococcus faecalis, Listeria monocytogenes; assay: FACS analysis of rF1 binding to other staphylococcal and Gram-positive species; conditions: flow cytometry
Protocol: as §2

USA300 = assay: Uptake and killing of preopsonized USA300 by human PMN; assay type: cell-based, Staphylococcus aureus
Protocol: as §5

[5] = system: USA300 derived from infected mouse kidneys, livers and lungs; assay: FACS analysis of rF1 binding to USA300 from infected mouse tissues; parameters: species or system Staphylococcus aureus
Protocol: as §3, §4

S. epidermidis = assay: FACS analysis of rF1 binding to S. epidermidis; parameters: species or system Staphylococcus epidermidis; conditions: flow cytometry
Protocol: as §2

Molecule	MIC ([1]; Staphylococcus aureus, MRSA, 24 h, read-out: Intracellular MRSA MIC)	killing of MRSA sequestered inside macrophages ([1]; clinically achievable concentrations of the antibiotics)	MIC [2]	establishment of infection in kidney and brain under vancomycin therapy (S. aureus)	survival of intracellular MRSA in the leukocytes (MRSA; MRSA sequestered inside peritoneal cells, vancomycin, identical conditions)	killing of planktonic bacteria (MRSA; planktonic bacteria exposed to vancomycin alone, 5 ug/mL, one day in culture)	surviving bacteria associated with MG63 cells (% of input) (MRSA; planktonic bacteria plated on MG63 osteoblasts, vancomycin, one day after infection)	binding to S. aureus strains (15 S. aureus strains)	binding to MRSA COL from rabbit heart vegetations [3]	maximum binding relative to isotype-matched anti-ClfA mAb (MRSA strain USA300)	binding to other staphylococcal and Gram-positive species [4]	viability of USA300 in the absence of PMN (USA300; no PMN)	bacterial killing by PMN (viability) (USA300; preopsonized USA300, human PMN)	bacterial uptake by PMN (USA300; preopsonized USA300, human PMN)	binding to USA300 from infected mouse tissues ([5]; kidneys, livers and lungs after systemic infection)	duration of sustained binding to USA300 from mouse kidneys after infection ([5]; mouse kidneys)	binding to S. epidermidis (S. epidermidis)
CN[C@H](CC(C)C)C(=O)N[C@H]1C(=O)N[C@@H](CC(N)=O)C(=O)N[C@H]2C(=O)N[C@H]3C(=O)N[C@H](C(=O)N[C@H](C(=O)O)c4cc(O)cc(O)c4-c4cc3ccc4O)[C@H](O)c3ccc(c(Cl)c3)Oc3cc2cc(c3O[C@@H]2O[C@H](CO)[C@@H](O)[C@H](O)[C@H]2O[C@H]2C[C@](C)(N)[C@H](O)[C@H](C)O2)Oc2ccc(cc2Cl)[C@H]1O [Vancomycin]	> 100 µg/mL	failed to kill	1 µg/mL (≈ 0.69 µM)	intracellular bacteria, but not planktonic bacteria, were able to establish infection	About 15%	efficiently killed	approximately 0.06%	–	–	–	–	–	–	–	–	–	–
rF1: recombinantly produced F1, fully human IgG1 anti-SDR monoclonal antibody binding S. aureus and S. epidermidis (antibody, V domains shown) VH: EVQLVESGGGLVQPGGSLRLSCAASGFTLSRFAMSWVRQAPGRGLEWVASINNGNNPYYARSVQYRFTVSRDVSQNTVSLQMNNLRAEDSATYFCAKDHPSSGWPTFDSWGPGTLVTVSS VL: DIQLTQSPSALPASVGDRVSITCRASENVGDWLAWYRQKPGKAPNLLIYKTSILESGVPSRFSGSGSGTEFTLTISSLQPDDFATYYCQHYMRFPYTFGQGTKVEIKRTV	–	–	–	–	–	–	–	potent binding activity	strongly bound	approximately 10 fold	did not bind	did not affect viability	potent killing	increased uptake	strongly bound	at least 8 days	detectable
